T1: XENP23311 (His-tagged NKG2D-Fc) (human, UniProt P26718 78-216)
T1 chain: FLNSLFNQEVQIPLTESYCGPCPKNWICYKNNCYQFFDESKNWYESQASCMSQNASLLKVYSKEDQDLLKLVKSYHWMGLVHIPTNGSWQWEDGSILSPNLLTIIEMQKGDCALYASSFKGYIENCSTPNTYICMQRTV


What follows are binders tested against CD16 (UniProt P08637 17-208) (assay: not given).
Chain of CD16 (P08637 17-208): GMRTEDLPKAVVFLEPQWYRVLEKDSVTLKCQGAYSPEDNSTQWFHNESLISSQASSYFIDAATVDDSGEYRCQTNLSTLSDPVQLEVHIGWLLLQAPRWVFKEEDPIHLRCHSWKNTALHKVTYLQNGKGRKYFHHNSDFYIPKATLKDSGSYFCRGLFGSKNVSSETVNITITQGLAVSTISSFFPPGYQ

Row | Binder | Kd [nM]
1 | XENP41022 (antibody) chain 1: EVQLLESGGGLVQPGGSLRLSCAVSGFSLSSYGVIWVRQAPGKGLEYVSWVSSGGSTNYASSVKGRFTISRDTSKNTVYLQMNSLRAEDTAVYFCARGATNSGTDIWGPGTLVTVSSASTKGPSVFPLAPSSKSTSGGTAALGCLVKDYFPEPVTVSWNSGALTSGVHTFPAVLQSSGLYSLSSVVTVPSSSLGTQTYICNVNHKPSDTKVDKKVEPKSCDKTHTCPPCPAPELLGGPDVFLFPPKPKDTLMISRTPEVTCVVVDVSHEDPEVKFNWYVDGVEVHNAKTKPREEEYNSTYRVVSVLTVLHQDWLNGKEYKCKVSNKALPAPEEKTISKAKGQPREPQVYTLPPSREEMTKNQVSLTCDVSGFYPSDIAVEWESDGQPENNYKTTPPVLDSDGSFFLYSKLTVDKSRWEQGDVFSCSVMHEALHNHYTQKSLSLSPGK chain 2: EVQLLESGGGLVQPGGSLRLSCAVSGFSLSSYGVIWVRQAPGKGLEYVSWVSSGGSTNYASSVKGRFTISRDTSKNTVYLQMNSLRAEDTAVYFCARGATNSGTDIWGPGTLVTVSSGKPGSGKPGSGKPGSGKPGSDIVMTQSPSSLSASVGDRVTITCRASQSINSWLSWYQQKPGKPPKLLIYGASNLASGVPSRFKGSGSGTDFTLTISSLQPEDFATYYCQNNYGIIAAGATFGGGTKVEIKEPKSSDKTHTCPPCPAPELLGGPDVFLFPPKPKDTLMISRTPEVTCVVVDVSHEDPEVKFNWYVDGVEVHNAKTKPREEQYNSTYRVVSVLTVLHQDWLNGKEYKCKVSNKALPAPEEKTISKAKGQPREPQVYTLPPSREQMTKNQVKLTCLVKGFYPSDIAVEWESNGQPENNYKTTPPVLDSDGSFFLYSKLTVDKSRWQQGNVFSCSVMHEALHNHYTQKSLSLSPGK chain 3: DIVMTQSPSSLSASVGDRVTITCRASQSINSWLSWYQQKPGKPPKLLIYGASNLASGVPSRFKGSGSGTDFTLTISSLQPEDFATYYCQNNYGIIAAGATFGGGTKVEIKRTVAAPSVFIFPPSDEQLKSGTASVVCLLNNFYPREAKVQWKVDNALQSGNSQESVTEQDSKDSTYSLSSTLTLSKADYEKHKVYACEVTHQGLSSPVTKSFNRGEC | 28.9
2 | XENP41027 (antibody) chain 1: EVQLLESGGGLVQPGGSLRLSCAVSGFSLSSYGVIWVRQAPGKGLEYVSWVSSGGSTNYASSVKGRFTISRDTSKNTVYLQMNSLRAEDTAVYFCARGATNSGTDIWGPGTLVTVSSASTKGPSVFPLAPSSKSTSGGTAALGCLVKDYFPEPVTVSWNSGALTSGVHTFPAVLQSSGLYSLSSVVTVPSSSLGTQTYICNVNHKPSDTKVDKKVEPKSCDKTHTCPPCPAPELLGGPSVFLFPPKPKDTLMISRTPEVTCVVVDVSHEDPEVKFNWYVDGVEVHNAKTKPREEEYNSTYRVVSVLTVLHQDWLNGKEYKCKVSNKALPAPIEKTISKAKGQPREPQVYTLPPSREEMTKNQVSLTCDVSGFYPSDIAVEWESDGQPENNYKTTPPVLDSDGSFFLYSKLTVDKSRWEQGDVFSCSVMHEALHNHYTQKSLSLSPGK chain 2: EVQLLESGGGLVQPGGSLRLSCAVSGFSLSSYGVIWVRQAPGKGLEYVSWVSSGGSTNYASSVKGRFTISRDTSKNTVYLQMNSLRAEDTAVYFCARGATNSGTDIWGPGTLVTVSSGKPGSGKPGSGKPGSGKPGSDIVMTQSPSSLSASVGDRVTITCRASQSINSWLSWYQQKPGKPPKLLIYGASNLASGVPSRFKGSGSGTDFTLTISSLQPEDFATYYCQNNYGIIAAGATFGGGTKVEIKEPKSSDKTHTCPPCPAPELLGGPSVFLFPPKPKDTLMISRTPEVTCVVVDVSHEDPEVKFNWYVDGVEVHNAKTKPREEQYNSTYRVVSVLTVLHQDWLNGKEYKCKVSNKALPAPEEKTISKAKGQPREPQVYTLPPSREQMTKNQVKLTCLVKGFYPSDIAVEWESNGQPENNYKTTPPVLDSDGSFFLYSKLTVDKSRWQQGNVFSCSVMHEALHNHYTQKSLSLSPGK chain 3: DIVMTQSPSSLSASVGDRVTITCRASQSINSWLSWYQQKPGKPPKLLIYGASNLASGVPSRFKGSGSGTDFTLTISSLQPEDFATYYCQNNYGIIAAGATFGGGTKVEIKRTVAAPSVFIFPPSDEQLKSGTASVVCLLNNFYPREAKVQWKVDNALQSGNSQESVTEQDSKDSTYSLSSTLTLSKADYEKHKVYACEVTHQGLSSPVTKSFNRGEC | 242
3 | XENP41030 (antibody) chain 1: EVQLLESGGGLVQPGGSLRLSCAVSGFSLSSYGVIWVRQAPGKGLEYVSWVSSGGSTNYASSVKGRFTISRDTSKNTVYLQMNSLRAEDTAVYFCARGATNSGTDIWGPGTLVTVSSASTKGPSVFPLAPSSKSTSGGTAALGCLVKDYFPEPVTVSWNSGALTSGVHTFPAVLQSSGLYSLSSVVTVPSSSLGTQTYICNVNHKPSDTKVDKKVEPKSCDKTHTCPPCPAPELLGGPSVFLFPPKPKDTLMISRTPEVTCVVVDVSHEDPEVKFNWYVDGVEVHNAKTKPREEEYNSTYRVVSVLTVLHQDWLNGKEYKCKVSNKALPAPEEKTISKAKGQPREPQVYTLPPSREEMTKNQVSLTCDVSGFYPSDIAVEWESDGQPENNYKTTPPVLDSDGSFFLYSKLTVDKSRWEQGDVFSCSVMHEALHNHYTQKSLSLSPGK chain 2: not shown chain 3: DIVMTQSPSSLSASVGDRVTITCRASQSINSWLSWYQQKPGKPPKLLIYGASNLASGVPSRFKGSGSGTDFTLTISSLQPEDFATYYCQNNYGIIAAGATFGGGTKVEIKRTVAAPSVFIFPPSDEQLKSGTASVVCLLNNFYPREAKVQWKVDNALQSGNSQESVTEQDSKDSTYSLSSTLTLSKADYEKHKVYACEVTHQGLSSPVTKSFNRGEC | 203
4 | XENP41025 (antibody) chain 1: EVQLLESGGGLVQPGGSLRLSCAVSGFSLSSYGVIWVRQAPGKGLEYVSWVSSGGSTNYASSVKGRFTISRDTSKNTVYLQMNSLRAEDTAVYFCARGATNSGTDIWGPGTLVTVSSASTKGPSVFPLAPSSKSTSGGTAALGCLVKDYFPEPVTVSWNSGALTSGVHTFPAVLQSSGLYSLSSVVTVPSSSLGTQTYICNVNHKPSDTKVDKKVEPKSCDKTHTCPPCPAPELLGGPSVFLFPPKPKDTLMISRTPEVTCVVVDVSHEDPEVKFNWYVDGVEVHNAKTKPREEEYNSTYRVVSVLTVLHQDWLNGKEYKCKVSNKALPAPIEKTISKAKGQPREPQVYTLPPSREEMTKNQVSLTCDVSGFYPSDIAVEWESDGQPENNYKTTPPVLDSDGSFFLYSKLTVDKSRWEQGDVFSCSVMHEALHNHYTQKSLSLSPGK chain 2: EVQLLESGGGLVQPGGSLRLSCAVSGFSLSSYGVIWVRQAPGKGLEYVSWVSSGGSTNYASSVKGRFTISRDTSKNTVYLQMNSLRAEDTAVYFCARGATNSGTDIWGPGTLVTVSSGKPGSGKPGSGKPGSGKPGSDIVMTQSPSSLSASVGDRVTITCRASQSINSWLSWYQQKPGKPPKLLIYGASNLASGVPSRFKGSGSGTDFTLTISSLQPEDFATYYCQNNYGIIAAGATFGGGTKVEIKEPKSSDKTHTCPPCPAPELLGGPDVFLFPPKPKDTLMISRTPEVTCVVVDVSHEDPEVKFNWYVDGVEVHNAKTKPREEQYNSTYRVVSVLTVLHQDWLNGKEYKCKVSNKALPAPEEKTISKAKGQPREPQVYTLPPSREQMTKNQVKLTCLVKGFYPSDIAVEWESNGQPENNYKTTPPVLDSDGSFFLYSKLTVDKSRWQQGNVFSCSVMHEALHNHYTQKSLSLSPGK chain 3: DIVMTQSPSSLSASVGDRVTITCRASQSINSWLSWYQQKPGKPPKLLIYGASNLASGVPSRFKGSGSGTDFTLTISSLQPEDFATYYCQNNYGIIAAGATFGGGTKVEIKRTVAAPSVFIFPPSDEQLKSGTASVVCLLNNFYPREAKVQWKVDNALQSGNSQESVTEQDSKDSTYSLSSTLTLSKADYEKHKVYACEVTHQGLSSPVTKSFNRGEC | 136

Target: T1, XENP23311 (His-tagged NKG2D-Fc)
Assay: Octet

Row | Binder | Kd [nM]
5 | XENP40587 (1D2B4, 2+1 VHVL) (antibody) chain 1: EVQLLESGGGLVQPGGSLRLSCAVSGFSLSSYGVIWVRQAPGKGLEYVSWVSSGGSTNYASSVKGRFTISRDTSKNTVYLQMNSLRAEDTAVYFCARGATNSGTDIWGPGTLVTVSSASTKGPSVFPLAPSSKSTSGGTAALGCLVKDYFPEPVTVSWNSGALTSGVHTFPAVLQSSGLYSLSSVVTVPSSSLGTQTYICNVNHKPSDTKVDKKVEPKSCDKTHTCPPCPAPELLGGPSVFLFPPKPKDTLMISRTPEVTCVVVDVSHEDPEVKFNWYVDGVEVHNAKTKPREEEYNSTYRVVSVLTVLHQDWLNGKEYKCKVSNKALPAPIEKTISKAKGQPREPQVYTLPPSREEMTKNQVSLTCDVSGFYPSDIAVEWESDGQPENNYKTTPPVLDSDGSFFLYSKLTVDKSRWEQGDVFSCSVMHEALHNHYTQKSLSLSPGK chain 2: not shown chain 3: DIVMTQSPSSLSASVGDRVTITCRASQSINSWLSWYQQKPGKPPKLLIYGASNLASGVPSRFKGSGSGTDFTLTISSLQPEDFATYYCQNNYGIIAAGATFGGGTKVEIKRTVAAPSVFIFPPSDEQLKSGTASVVCLLNNFYPREAKVQWKVDNALQSGNSQESVTEQDSKDSTYSLSSTLTLSKADYEKHKVYACEVTHQGLSSPVTKSFNRGEC | 59.8
6 | XENP40381 (LB_1001, 1+1 VHVL) (antibody) chain 1: EVQLLESGGGLVQPGGSLRLSCAVSGFSLSSYGVIWVRQAPGKGLEYVSWVSSGGSTNYASSVKGRFTISRDTSKNTVYLQMNSLRAEDTAVYFCARGATNSGTDIWGPGTLVTVSSASTKGPSVFPLAPSSKSTSGGTAALGCLVKDYFPEPVTVSWNSGALTSGVHTFPAVLQSSGLYSLSSVVTVPSSSLGTQTYICNVNHKPSDTKVDKKVEPKSCDKTHTCPPCPAPELLGGPSVFLFPPKPKDTLMISRTPEVTCVVVDVSHEDPEVKFNWYVDGVEVHNAKTKPREEEYNSTYRVVSVLTVLHQDWLNGKEYKCKVSNKALPAPIEKTISKAKGQPREPQVYTLPPSREEMTKNQVSLTCDVSGFYPSDIAVEWESDGQPENNYKTTPPVLDSDGSFFLYSKLTVDKSRWEQGDVFSCSVMHEALHNHYTQKSLSLSPGK chain 2: not shown chain 3: DIVMTQSPSSLSASVGDRVTITCRASQSINSWLSWYQQKPGKPPKLLIYGASNLASGVPSRFKGSGSGTDFTLTISSLQPEDFATYYCQNNYGIIAAGATFGGGTKVEIKRTVAAPSVFIFPPSDEQLKSGTASVVCLLNNFYPREAKVQWKVDNALQSGNSQESVTEQDSKDSTYSLSSTLTLSKADYEKHKVYACEVTHQGLSSPVTKSFNRGEC | 84.5
7 | XENP41339 (1D2B4, 2+1 VLVH) (antibody) chain 1: EVQLLESGGGLVQPGGSLRLSCAVSGFSLSSYGVIWVRQAPGKGLEYVSWVSSGGSTNYASSVKGRFTISRDTSKNTVYLQMNSLRAEDTAVYFCARGATNSGTDIWGPGTLVTVSSASTKGPSVFPLAPSSKSTSGGTAALGCLVKDYFPEPVTVSWNSGALTSGVHTFPAVLQSSGLYSLSSVVTVPSSSLGTQTYICNVNHKPSDTKVDKKVEPKSCDKTHTCPPCPAPELLGGPSVFLFPPKPKDTLMISRTPEVTCVVVDVSHEDPEVKFNWYVDGVEVHNAKTKPREEEYNSTYRVVSVLTVLHQDWLNGKEYKCKVSNKALPAPIEKTISKAKGQPREPQVYTLPPSREEMTKNQVSLTCDVSGFYPSDIAVEWESDGQPENNYKTTPPVLDSDGSFFLYSKLTVDKSRWEQGDVFSCSVMHEALHNHYTQKSLSLSPGK chain 2: not shown chain 3: DIVMTQSPSSLSASVGDRVTITCRASQSINSWLSWYQQKPGKPPKLLIYGASNLASGVPSRFKGSGSGTDFTLTISSLQPEDFATYYCQNNYGIIAAGATFGGGTKVEIKRTVAAPSVFIFPPSDEQLKSGTASVVCLLNNFYPREAKVQWKVDNALQSGNSQESVTEQDSKDSTYSLSSTLTLSKADYEKHKVYACEVTHQGLSSPVTKSFNRGEC | 83.1

From US20230151095A1 (published 2023)
